The values below come from PMC11908824, “UGT74B5-mediated glucosylation at ortho hydroxyl groups of benzoic acid derivatives regulating plant immunity to anthracnose in tea plants” (Horticulture Research, 2025).

A word on the Km: it is the concentration of substrate that gives half-maximal velocity.

Substrate in data set [1]: O=C(O)c1ccccc1O
Kind of data set: LC-MS glucosyltransferase assay. As to conditions: 2.5 mM UDP-glucose, optimal conditions (pH 8.0-8.5, 30°C), 0-300 μM substrate. It is filed as biochemical, Camellia sinensis.

Substrate in data set [2]: O=C(O)c1c(O)cccc1O
Kind of data set: LC-MS glucosyltransferase assay. In kind it is biochemical, Camellia sinensis. As to conditions: 2.5 mM UDP-glucose, optimal conditions (pH 8.0-8.5, 30°C), 0-300 μM substrate.

B1: CsUGT74B5 (rCsUGT74B5) (Camellia sinensis) (protein)
chain: MEQRNHGGHVVVLPYPSQGHINPLLQFAKRLASKGVKATLATTHYTVKSICVPNIAVEPISDGFDNGGFTQARAEDVYLKSLRENGSRTLSQLIEKHKNTNFPINCVVYDSFFPWALDVAKTHGIYGAPFFTNSATVCAIFCHVHHGLVKLPVKVEELPLVLPGIPPLNLVDLPSFVQAPESYPAYLAMKLSQYSNLDKADWVFGNTFEELEGEAVKNVLELWPGKMIGPMVPSAYLDGRIEEDKGYGASLWKPLSSDCAKWLEAKPSQSVVYVSFGSMVSLTEEQMEEMAWGLKGSNLDFIWVVRESEITKLPSEFTNSTAQEKGLIVTWCNQLEMLAHQAIGCFVTHCGWNSTLEGLSLGVPMVGVPKWTDQLTDAKFIEEIWGVGFRAKEDEKGVVRREELMGCLKEVMEGERSVEIRKNCCKWKELAKEAISEGGSSDKSIDEFVEQLKSGNEKGVVKYLTNGNGHY
notes: full CDS in pMAL-c2X (N-terminal MBP fusion, tag cleavage not mentioned), expressed in E. coli Novablue (DE3), amylose resin purified
Take B1: the Michaelis constant (Km) was determined as 42.01 µM in data set [1] and 15.26 µM in data set [2].
